Biological target: ubiquitin-rhodamine (Ub-Rho) (UniProt P0CG48)

KM (= k off/k on) from the KinTek global fit of activity data; +UAF1, Ub-Rho: 5.94 µM
Substance: USP1^WT-UAF1 (active) (from UniProt O94782;Q8TAF3) (complex)

Reference: paper PMC8024992
